The data set relates to MS2 coat protein. As to the kind of experiment: apparent KD of MS2 coat protein; designed switch direction (-1 OFF switch, 1 ON switch): -1; higher = weaker reporter binding. Summed up: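 SNAP-549-labelled MS2 coat protein was titrated, doubling from 0.7 or 1.5 nM to 3 µM, over designed RNA switches transcribed on Illumina chips by stalled E. coli RNA polymerase. Runs were done without input, with 200 uM small-molecule ligand, or with an oligonucleotide input. Apparent KD is the per-design median over clusters of curve-fitted normalised fluorescence.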

Setting [1] is: Eterna round: R95, input ligand: FMN 200 uM.
[2] abbreviates: Eterna round: R95, input ligand: microRNA oligo, concentration not stated.
The mark [3] stands for this setting: Eterna round: R95, input ligand: none.
The mark [4] stands for this setting: input ligand: microRNA oligo, concentration not stated.

For “GUUUCACAUGAGGAUCACCCAUGUGAGGAUAUGGAUUCGAUAGAAGUAGAAGAUGGAUCCAGAAGGCGCGUGAC [JR_Ex1_Sub078] (Eterna round: R97, puzzle: Exclusion 1)”, the “apparent KD of MS2 coat protein” value (input ligand: FMN 200 uM) was 35.3 nM and the “apparent KD of MS2 coat protein” value (input ligand: none) is 36.4 nM.

Turning to “GAGAAGGUAGGAUAUACGAAGAAAGAGGGUAGGAAUAAUACACAUGAGGAUCACCCAUGUAGAAGGACCAAGAG [Mat - Exclusion 2 - Mod of my Tesla design - D46] (puzzle: Exclusion 2)”, the “apparent KD of MS2 coat protein” value is, setting by setting: under setting [1], 38.7 nM; under setting [2], 21.4 nM; under setting [3], 24.2 nM.

Regarding “AUCAGCUCGUCAGGAUAUACAUGAUAGAUCGAUUAAUUAAUUAAUUUAACAUGAGGAUCACCCAUGUAGAAGGGACGAGCUGAU [ENG2/1-B3] (Eterna round: R96, puzzle: Exclusion NG 2)”, the “apparent KD of MS2 coat protein” value under setting [4] is 39.3 nM.

As for “AUAAAGAGGCUAGGAUAUACAUCGGUGCGAAAAGACGUAAUCCUUUGAACAUGAGGAUCACCCAUGUAGAAGGAGCAGACGGAA [Quriored] (Eterna round: R96, puzzle: Exclusion NG 2)”, the “apparent KD of MS2 coat protein” value amounted to 44.5 nM (input ligand: FMN 200 uM), 11.7 nM under setting [4] and 17.4 nM (input ligand: none).

On to “GAAAAUGUAGAGGAUAUUUCAGAUCAAGACUGCAAAGAAGGCUGCACAUGAGGAUCACCCAUGUGGUCAACAAA [Mod of Quesina 15 - Jieux - Exclusion 6] (Eterna round: R97, puzzle: Exclusion 6)”, for which the “apparent KD of MS2 coat protein” value amounted to 79.1 nM (input ligand: FMN 200 uM) and 22.3 nM (input ligand: none).

“AAAAUGUGAGGAUAUCAGGUGUGCUAGCGUACUGGUACAUCUGAGAAGGCACAUGAGGAUCACCCAUGUUUCUU [Mat - Exclusion 4 - Mod of JL - D44] (puzzle: Exclusion 4)”: the “apparent KD of MS2 coat protein” value under setting [2] was 22.5 nM.

In the case of “GUGUUUGGUGUAGGAUAUGUUUGUGGGUCGCGGGCAGAAGGACAUGAGGAUCACCCAUGUUUCGGGCUUGGCUUGGGCGGGCGC [-21, -19 kcal and 14% A] (Eterna round: R96, puzzle: Exclusion NG 1)”, the “apparent KD of MS2 coat protein” value (input ligand: FMN 200 uM) came out at 16.7 nM, the “apparent KD of MS2 coat protein” value under setting [4] stood at 12.4 nM and the “apparent KD of MS2 coat protein” value (input ligand: none) was 17.6 nM.

On to “CAUACUAAAGUCAGGAUAUGCGGCCGAAUACGGGUGUAGAAGGGACAUGAGGAUCACCCAUGUAGAUAGUAAAG [EX-4 Malc #17] (puzzle: Brourd's mod of Exclusion 4)”, for which the “apparent KD of MS2 coat protein” value is, setting by setting: under setting [1], 29.1 nM; under setting [2], 23.1 nM; under setting [3], 22.2 nM.

With “GUGCUGGUAGGAUAUACAUGAGGAUCACCCAUGUGGCGUGACUCCUAUGGCAGCGCCGGUAGAAGGAUUAGAAG [Eternabot (L1) Solution 60] (Eterna round: R97, puzzle: Exclusion 3)”, the “apparent KD of MS2 coat protein” value came out at 188 nM (input ligand: FMN 200 uM) and 261 nM (input ligand: none).

“GGAGAGGUAGGAUAUGGACCUUAGAACAUGAGGAUCACCCAUGUAGGACCACAUGAAAUGCCAGAAGGACCAGUCC [AK-MS2ROC-r4-exclusion5-5] (Eterna round: R97, puzzle: Exclusion 5)”: the “apparent KD of MS2 coat protein” value turned out to be 153 nM (input ligand: FMN 200 uM) and 145 nM (input ligand: none).

Regarding “UAUUAGUAAGGAUAUGAGUCGUAGAACGAAAGUACUACGUCUCAGAAGGUACAUGAGGAUCACCCAUGUUCAUU [Mod of Fisker 3 - Jieux - Exclusion 4] (Eterna round: R97, puzzle: Exclusion 4)”, the “apparent KD of MS2 coat protein” value by setting is: (input ligand: FMN 200 uM) 21.8 nM; (input ligand: none) 13.5 nM.

On to “CUCUUGUUAGGAUAUCAAACCAGCGGCGGAACCGCUGGAAGUGAGAAGGGACAUGAGGAUCACCCAUGUAAGAA [Usrebiis] (puzzle: Exclusion 4)”, for which the “apparent KD of MS2 coat protein” value by setting is: under setting [1], 161 nM; under setting [2], 39.3 nM; under setting [3], 64.8 nM.

On to “CCAAUACAAGGAUAUGCGAUGCAUGUCAGGUUAGUAGACAGACAUGAGGAUCACCCAUGUAGAAGGUGUGUUGG [Eternabot (L2) Solution 55] (Eterna round: R97, puzzle: Exclusion 2)”, for which the “apparent KD of MS2 coat protein” value was 75.6 nM (input ligand: FMN 200 uM) and 41.4 nM (input ligand: none).

Consider “AUUUAGUCAGGAUAUUAGUAGUAAAUAAAUAAAAUUAUUACUGAGAAGGGACAUGAGGAUCACCCAUGUGUCUA [Salish 062 v8] (Eterna round: R97, puzzle: Exclusion 4)”, for which the “apparent KD of MS2 coat protein” value was 44.4 nM (input ligand: FMN 200 uM) and 24.9 nM (input ligand: none).

On to “AAGUAUAGAGGAUAUAGUAGUUACAACAUGAGGAUCACCCAUGUUCUUCAUAGCGUAGAUCUAGAAGGCUGAUAAA [EX-5 Malc#30] (puzzle: Exclusion 5)”, for which the “apparent KD of MS2 coat protein” value reads like this: under setting [1], 265 nM; under setting [2], 110 nM; under setting [3], 119 nM.

Regarding “GUAUAACUACACGGGCUCAACAUGAGGAUCACCCAUGUAAUAUACGCAAGCUUUUUGCUUGUCUUAUCUGUCCGUGA [Aanrius] (puzzle: Sensor v3, turn-off variant 1)”, the “apparent KD of MS2 coat protein” value reads like this: under setting [1], 12.3 nM; under setting [2], 9.56 nM; under setting [3], 11.4 nM.

For “UUGUCGUGUGUAGGAUAUCGUUGGCGUUCGCCGCGAGAAGGACAUGAGGAUCACCCAUGUGCGUCAGGGUCGUCCACAGGUGAU [-27/-25 Kcal and A 19%] (Eterna round: R96, puzzle: Exclusion NG 1)”, the “apparent KD of MS2 coat protein” value (input ligand: FMN 200 uM) came to 663 nM, the “apparent KD of MS2 coat protein” value under setting [4] stood at 281 nM and the “apparent KD of MS2 coat protein” value (input ligand: none) stood at 371 nM.

As for “UUUACAAGCUAAUGAUCCCACAUGAGGAUCACCCAUGUUGCUGCCGUGAGGUAGCUUUUAACAUUUGCUCGUCUUAU [JL TOV1 3.40] (Eterna round: R97, puzzle: Sensor, turn-off variant 1)”, the “apparent KD of MS2 coat protein” value worked out at 733 nM (input ligand: FMN 200 uM) and 1060 nM (input ligand: none).

As for “UGCUACGGAGGAUAUACAUGAGGAUCACCCAUGUGUGAGAUUUGGCCGAGAGGCCAAUGUAGAAGGCCGUAGCU [jl-ex3-4.20 jl mod] (Eterna round: R97, puzzle: Exclusion 3)”, the “apparent KD of MS2 coat protein” value turned out to be 371 nM (input ligand: FMN 200 uM) and 35.9 nM (input ligand: none).

Turning to “AUUUUAUAUGAAGGAUAUACUUAACAUGAGGAUCACCCAUGUGGUGUUGUGAGUGAGUGAGUUUAGUAGAAGGUCAAGUAUUUU [JMF's solution 55] (Eterna round: R96, puzzle: Exclusion NG 2)”, the “apparent KD of MS2 coat protein” value reads like this: (input ligand: FMN 200 uM) 724 nM; under setting [4], 284 nM; (input ligand: none) 396 nM.

As to “CUCGUGUAAGGAUAUGCGAGCCGCGGAAAUACACCGCGGAGGUAGAAGGUACAUGAGGAUCACCCAUGUAAAAC [Edisora] (puzzle: Exclusion 4)”, under setting [2], the “apparent KD of MS2 coat protein” value turned out to be 26.6 nM.

With “CAUUACUACAAGCUAAGGGACAUGAGGAUCACCCAUGUUCGUCUUAUUGAUCUAGGUACGCUGACGUACCUAGAUCU [JL-sv1-2.23 Brourd mod] (puzzle: Sensor v3, turn-off variant 1)”, the “apparent KD of MS2 coat protein” value reads like this: under setting [1], 15.8 nM; under setting [2], 20.1 nM; under setting [3], 14.6 nM.

For “CGUUGGCGAGGAUAUACAUGAGGAUCACCCAUGUGAGAGAAAAAAGUGAGGAAGAAAAGUAGAAGGCGCUGACG [salish99_ex3_r3_050] (puzzle: Exclusion 3)”, the “apparent KD of MS2 coat protein” value under setting [1] turned out to be 350 nM, the “apparent KD of MS2 coat protein” value under setting [2] is 101 nM and the “apparent KD of MS2 coat protein” value under setting [3] is 34.9 nM.

For “CCAGGAAGGCAGGAUAUCCAAAGCCGUCCCGGCGGAGAAGGGCUAACUUGAGGAUCACCCAAGUGAUGCCUAAC [Oreden] (Eterna round: R97, puzzle: Exclusion 6)”, the “apparent KD of MS2 coat protein” value (input ligand: FMN 200 uM) is 13 nM and the “apparent KD of MS2 coat protein” value (input ligand: none) is 14.2 nM.

As for “ACAUGAGGAUCACCCAUGUACGGUUGGUUUUCUCCGGCUGUUGAGGAUAUAGUCCGGUAUCCGCGCUAGAAGGUGAGGGUUGGC [Aenatbe mod 11] (Eterna round: R96, puzzle: Exclusion NG 3)”, the “apparent KD of MS2 coat protein” value is, setting by setting: (input ligand: FMN 200 uM) 104 nM; under setting [4], 74.6 nM; (input ligand: none) 87.6 nM.

“GUCAGACGAGGAUAUAGAUUUAGAUACAUGAGGAUCACCCAUGUAUAUAUGUAUUUAGAUUUAGAAGGCGUCUGAC [E5/15-A3] (Eterna round: R97, puzzle: Exclusion 5)”: the “apparent KD of MS2 coat protein” value (input ligand: FMN 200 uM) is 187 nM and the “apparent KD of MS2 coat protein” value (input ligand: none) came out at 240 nM.

On to “AUAAUGUAAGGAUAUCAGUCGACUAGCGAUAGCUAGUCGACUGAGAAGGUACAUGAGGAUCACCCAUGUGAUUA [E4/10-A4] (Eterna round: R97, puzzle: Exclusion 4)”, for which the “apparent KD of MS2 coat protein” value is, setting by setting: (input ligand: FMN 200 uM) 421 nM; (input ligand: none) 167 nM.

“CAUGAUUGGGAAGGAUAUUGACCUAGUUAGUGCCGAGAAGGUCCCUUUCACAUGAGGAUCACCCAUGUGAGACUGGUGUUCGAG [Ex NG1 #98] (Eterna round: R96, puzzle: Exclusion NG 1)”: under setting [4], the “apparent KD of MS2 coat protein” value was 19.6 nM.

Consider “UGAGAACAUGAGGAUCACCCAUGUAAGGAUAUGCGAAGAGUUCGGAGAGGUUGAGGAGGCAGAAGGUACAGGAG [JR_Exclu1_Sub043] (puzzle: Exclusion 1)”, for which the “apparent KD of MS2 coat protein” value by setting is: under setting [1], 46.8 nM; under setting [2], 35.8 nM; under setting [3], 58.7 nM.

“UCGGCCGCCGUGAGGAUAUGCCCGCGCGCCCGCGGGCAGAAGGCACAUGAGGAUCACCCAUGUCCCGCGGCACC [salish99_bmx4_r4_125] (Eterna round: R97, puzzle: Brourd's mod of Exclusion 4)”: the “apparent KD of MS2 coat protein” value worked out at 15.1 nM (input ligand: FMN 200 uM) and 14.1 nM (input ligand: none).

With “CCGCUACAUGAGGAUCACCCAUGUCAGGAUAUCGUACGUUCGUCGAAAGACGAUCGUACGAGAAGGGUGAGCGG [Eli x1 4.38] (Eterna round: R97, puzzle: Exclusion 1)”, the “apparent KD of MS2 coat protein” value was determined as 138 nM (input ligand: FMN 200 uM) and 187 nM (input ligand: none).
